In assay [1] the target is T1, human HER4-Fc (recombinant human extracellular domain ErbB4/HER4 Fc chimera, R&D Systems) (human, UniProt Q15303 26-651).
T1 construct: extracellular domain; Bought protein; Fc part of the bought chimera not given
T1 sequence (looked up): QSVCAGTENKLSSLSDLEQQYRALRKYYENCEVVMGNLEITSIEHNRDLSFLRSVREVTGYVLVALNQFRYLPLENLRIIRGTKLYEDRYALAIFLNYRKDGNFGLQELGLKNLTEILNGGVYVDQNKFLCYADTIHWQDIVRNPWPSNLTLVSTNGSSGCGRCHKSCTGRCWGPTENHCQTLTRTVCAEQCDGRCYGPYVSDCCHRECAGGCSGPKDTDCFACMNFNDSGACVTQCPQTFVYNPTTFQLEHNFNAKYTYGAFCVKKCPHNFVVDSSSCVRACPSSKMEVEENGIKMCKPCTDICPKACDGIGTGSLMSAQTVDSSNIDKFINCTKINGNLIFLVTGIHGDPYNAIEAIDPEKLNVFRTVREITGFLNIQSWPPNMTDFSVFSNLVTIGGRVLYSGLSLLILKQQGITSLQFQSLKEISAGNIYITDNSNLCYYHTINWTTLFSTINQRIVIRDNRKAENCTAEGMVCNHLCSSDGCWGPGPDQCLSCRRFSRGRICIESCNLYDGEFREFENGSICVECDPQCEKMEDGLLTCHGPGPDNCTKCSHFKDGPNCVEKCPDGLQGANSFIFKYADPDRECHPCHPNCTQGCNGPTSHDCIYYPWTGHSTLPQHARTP
Put plainly: ELISA, coated HER4-Fc 50 ng. From the text:
The bound IgG were detected by using HRP-F(ab′) 2 goat anti human IgG F(ab′)2 specific (Interchim).
(In general: In an ELISA, binding on a coated surface is turned into a signal by an enzyme label.)

In assay [2] the target is T2, HER2 on transfected NIH 3T3 cells (human, UniProt P04626 23-1255).
T2 construct: whole, on cells
Description: flow cytometry, transfected NIH 3T3 cells. The method, then:
(§1) After three washes in PBS-BSA 0.1%, cells were incubated with the fluorescein-conjugated anti-human IgG-Fragment Fc specific (Sigma) at 4° C. in the dark for 45 min. Cells were then washed three times and suspended in PBS for analysis using an EPICS flow cytometer (Beckman-Coulter, Fullerton, Calif.).
Background: In flow cytometry, cells or beads pass a laser one at a time.

Assay [3] addresses T3, EGFR on transfected NIH 3T3 cells (human, UniProt P00533 25-1210).
T3 construct: whole, on cells
Description: flow cytometry, transfected NIH 3T3 cells. The method, then: as §1

The target of assay [4] is T4, EGFR/HER4 on transfected NIH 3T3 cells (human, UniProt P00533 25-1210; Q15303 26-1308).
T4 construct: whole, on cells; NIH 3T3 cells transfected with both EGFR and HER4
Description: flow cytometry, transfected NIH 3T3 cells. The method, then: as §1

Assay [5] addresses T5, HER3 receptor on cells (HER3-transfected NIH 3T3 fibroblasts; SKBR3 cells; BxPC3 cells) (human, UniProt P21860 20-1342).
T5 construct: whole, on cells; also called ErbB3
Description: flow cytometry, HER3-transfected NIH-3T3 cells. The procedure: as §1

The target in assay [6] is T6, mouse HER3-Fc (recombinant mouse extracellular domain ErbB3/HER3 Fc chimera, R&D Systems) (mouse, UniProt Q61526 20-641).
T6 construct: extracellular domain; Bought protein; also called murine HER3; Fc part of the bought chimera not given
T6 sequence (Q61526 20-641, change not shown): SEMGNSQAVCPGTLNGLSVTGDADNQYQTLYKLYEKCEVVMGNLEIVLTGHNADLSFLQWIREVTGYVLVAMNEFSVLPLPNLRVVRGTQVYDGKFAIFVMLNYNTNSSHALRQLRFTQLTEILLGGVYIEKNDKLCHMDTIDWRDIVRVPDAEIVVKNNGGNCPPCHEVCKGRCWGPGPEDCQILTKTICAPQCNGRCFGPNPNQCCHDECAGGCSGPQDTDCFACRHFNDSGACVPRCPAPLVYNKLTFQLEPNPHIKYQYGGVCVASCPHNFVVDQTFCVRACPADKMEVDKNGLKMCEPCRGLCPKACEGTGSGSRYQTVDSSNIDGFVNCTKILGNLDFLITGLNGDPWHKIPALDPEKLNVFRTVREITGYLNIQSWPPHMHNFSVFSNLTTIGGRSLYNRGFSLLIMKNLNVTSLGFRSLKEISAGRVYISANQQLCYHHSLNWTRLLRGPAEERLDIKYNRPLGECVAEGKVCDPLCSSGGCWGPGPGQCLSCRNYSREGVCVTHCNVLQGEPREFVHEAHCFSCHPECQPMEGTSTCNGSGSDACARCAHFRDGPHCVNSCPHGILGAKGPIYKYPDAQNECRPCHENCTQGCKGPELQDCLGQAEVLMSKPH
Description: ELISA, coated mouse HER3-Fc 250 ng/ml.

Assay [7] addresses T4, EGFR/HER4 on transfected NIH 3T3 cells. Put plainly: flow cytometry, EGFR/HER4-transfected NIH-3T3 cells. The procedure:
as §1

The target in assay [8] is T7, HER3 peptide 343-357 DFLITGLNGDPWHKI (human, also: cellulose-bound).
T7 construct: SPOT peptide
T7 peptide: Ac-DFLITGLNGDPWHKI
Put plainly: SPOT peptide array, antibody at 1 µg/ml.

In assay [9] the target is T8, HER2/HER3 complex on transfected NIH 3T3 cells (human, UniProt P04626 23-1255; P21860 20-1342).
T8 construct: whole, on cells; NIH 3T3 cells transfected with both HER2 and HER3; also called HER2-HER3 heterodimer
Description: flow cytometry, HER2/HER3-transfected NIH-3T3 cells. The procedure: as §1

The target of assay [10] is T3, EGFR on transfected NIH 3T3 cells. Description: flow cytometry, EGFR-transfected NIH-3T3 cells. The method, then: as §1
In assay [11] the target is T2, HER2 on transfected NIH 3T3 cells. Put plainly: flow cytometry, HER2-transfected NIH-3T3 cells. The method, then:
as §1

Ends that are not written are not given here.

Experimental findings from patent publication US20140141019A1 (INSERM INSTITUT NATIONALDE LA SENTE ET DE LA RECHERCHE …, published 2014) are described below.

B1: mAb H4B-121 (purified human IgG) (antibody, V domains shown)
VH: EVQLVESGGGLVQPGRSLRLSCAASGFTFDDYAMHWVRQAPGKGLEWVSGISWNSGSIGYADSVKGRFTISRDNAKNSLYLQMNSLRAEDTAVYYCAREGQWPNYGMDVWGQGTTVTVSS
VL: QSVLTQPPSVSAAPGQKVTISCPGSSSNIGNNYVSWYQQLPGTAPKLLIYDNNERPSGIPDRFSGSTSGTSATLDITDLQAEDEATYYCGAWDNTLGVYVLGTGTQLTVL
notes: expressed as human IgG1 in HEK 293 cells
As for B1, the binding result in assay [1] is listed as “no binding (tested: 0.5 µg/ml)”; in assay [2], “no binding”; in assay [3], “no binding”; in assay [4], “no binding”; in assay [6], “binds”; in assay [8] it was “binds”. For the same molecule, the geometric mean came to 12.3 in [5]; 0.67 in assay [7]; 70.4 in assay [9]; 0.33 in assay [10]; 0.56 in [11].
